This note sets out measurements from US20210395761.

In data set [1] the target is SPβc2 serine recombinase (SPβc2-HA-NLS) (Bacillus subtilis phage SPβc2) (UniProt O32006). The data set can be described thus: cell_activity. Conditions: lettuce initial screen; attP gave 27; background level.
In data set [2] the test system is T1, SF370.1 serine recombinase (SF370.1-HA-NLS) (Streptococcus pyogenes phage 370.1).
T1 sequence: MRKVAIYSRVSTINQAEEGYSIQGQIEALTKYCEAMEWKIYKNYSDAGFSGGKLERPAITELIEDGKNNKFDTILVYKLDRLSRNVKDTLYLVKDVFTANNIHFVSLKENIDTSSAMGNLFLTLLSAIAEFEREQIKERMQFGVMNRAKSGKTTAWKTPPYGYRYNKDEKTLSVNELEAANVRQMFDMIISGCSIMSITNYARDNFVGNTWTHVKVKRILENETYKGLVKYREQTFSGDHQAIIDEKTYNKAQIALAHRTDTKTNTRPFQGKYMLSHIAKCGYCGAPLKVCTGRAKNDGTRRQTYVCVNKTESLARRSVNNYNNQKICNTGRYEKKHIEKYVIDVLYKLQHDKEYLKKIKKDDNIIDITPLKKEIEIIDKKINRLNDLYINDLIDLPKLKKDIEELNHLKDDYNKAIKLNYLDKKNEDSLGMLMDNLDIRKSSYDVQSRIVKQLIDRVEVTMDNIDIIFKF
The data set can be described thus: cell_activity. Conditions: lettuce; 1 colony without recombinase.

SPβc2 serine recombinase (SPβc2-HA-NLS) (Bacillus subtilis phage SPβc2), sequence (O32006 whole entry): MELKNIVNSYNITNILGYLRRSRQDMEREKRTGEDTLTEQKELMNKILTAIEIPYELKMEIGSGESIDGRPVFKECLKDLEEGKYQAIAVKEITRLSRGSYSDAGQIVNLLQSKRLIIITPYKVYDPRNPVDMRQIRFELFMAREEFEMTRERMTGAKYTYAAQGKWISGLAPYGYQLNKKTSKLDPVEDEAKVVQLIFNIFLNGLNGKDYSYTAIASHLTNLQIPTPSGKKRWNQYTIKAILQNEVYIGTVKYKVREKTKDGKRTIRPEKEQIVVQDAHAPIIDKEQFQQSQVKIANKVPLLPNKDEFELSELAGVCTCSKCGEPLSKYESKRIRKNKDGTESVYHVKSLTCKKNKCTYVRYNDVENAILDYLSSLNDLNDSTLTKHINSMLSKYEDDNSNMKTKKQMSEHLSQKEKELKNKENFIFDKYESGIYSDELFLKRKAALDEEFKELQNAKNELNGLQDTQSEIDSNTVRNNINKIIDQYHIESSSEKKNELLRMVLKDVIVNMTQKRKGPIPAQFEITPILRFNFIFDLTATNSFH

Turning to siteless reporter plasmid, the activity in data set [1] worked out at 1 GFP+ colony.

Take “ATTTTTGTATCCAGTTCAATGGATATTTGATATAATCGTCTTAAAAAGGAGGTCGTGAAATGGATAAAAAAATACAGCGTTTTTCATGTACAACTATACTAGTTGTAGTGCCTAAATAATGCTTTTAAAACTTAAAAATAATATCGATGTTATCCATAGTAACCTCGACTCTATCTATCAATTGCTTAACTATCCTAGAT (double strand) [SF370 attP]”: in data set [2], the activity (GFP+ Kan resistant colonies) stood at 4.
